Data as given in the supplement of paper PMC10724198.
± gives the standard deviation of the averaged measurements.

System: Saccharomyces cerevisiae
Experiment: protein stability index of tFT-peptide fusion (C-terminal peptide) (PSI (0-1 scale)); higher = more stable (slower turnover)
Conditions: genetic background: wild type; temperature: 30 C
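Further: PSI is a weighted mean of sequencing reads over stability bins, variants kept only with over 10 reads, mCherry proximal and sfGFP distal, peptide attached via GGGS linker.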

Row | Sequence | protein stability index
1 | GVEGAVGGRRGA | 0.703 ± 0.029
2 | GLGLHKDGSTGG | 0.6093 ± 0.003
3 | MRIMERWVMGGG | 0.795 ± 0.16
4 | PPLPRPPLPTSL | 0.649 ± 0.045
5 | HHRRRRTTDVSL | 0.75 ± 0.049
6 | SLIACQGPIPCG | 0.648 ± 0.038
7 | EGDGQVWGGQGG | 0.644 ± 0.0078
8 | SFSPSIHLLSTL | 0.677 ± 0.045
9 | HLLRGSSPDRYV | 0.737 ± 0.019
10 | LPPLLPSLSHAR | 0.6459 ± 0.003
11 | GSRFCPHVGICI | 0.657 ± 0.019
12 | KKEGEREQGVRW | 0.703 ± 0.037
13 | PPRTSPRLLPPP | 0.686 ± 0.0069
14 | PGAGGLSLVVRR | 0.654 ± 0.053
15 | AGIFGGGRGGSV | 0.697 ± 0.0048
16 | PPTPPPPRSTPS | 0.766 ± 0.035
17 | GPYDLVSAPCLG | 0.753 ± 0.057
18 | TGLMAPEGGGQA | 0.719 ± 0.076
19 | PPPPLPPLPGTL | 0.657 ± 0.045
20 | SRRLSLSSLAFP | 0.723 ± 0.0074
21 | FSVDASLPLSSV | 0.6749 ± 0.0063
22 | GWRGGGSDGGLR | 0.718 ± 0.086
23 | MPHLARVREVVH | 0.6178 ± 0.0026
24 | NSTERDNGIRKE | 0.6686 ± 0.0065
25 | VWGGGLLVGAGW | 0.669 ± 0.035
26 | IVNLAQAEFVVT | 0.645 ± 0.039

Row | Sequence | protein stability index
27 | ELHPPIPYPSRP | 0.6773 ± 0.0047
28 | IFGVSRTGIRCT | 0.56 ± 0.011
29 | RSSLAVSTKVER | 0.639 ± 0.02
30 | GEGNRVPNPSRP | 0.669 ± 0.022
31 | PPTRLPQGVSWR | 0.702 ± 0.066
32 | LSCTTSSRPSPP | 0.699 ± 0.063
33 | LPPPLVPPLPSP | 0.7017 ± 0.0023
34 | DRASLAGPRSLP | 0.692 ± 0.032
35 | PPPPPPPSPPFS | 0.783 ± 0.031
36 | FNVSNPVSLQTG | 0.641 ± 0.021
37 | GGNKETKITRIE | 0.698 ± 0.011
38 | PPPLPAPPFSVF | 0.649 ± 0.028
39 | SWMDRGGSYSGI | 0.684 ± 0.12
40 | MCVSSSAGVRQE | 0.638 ± 0.054
41 | SGRPALSRARRG | 0.668 ± 0.015
42 | PPRPLPPPPPPT | 0.716 ± 0.017
43 | TTGNTHALSHAH | 0.717 ± 0.055
44 | DKSYKTYSVKGQ | 0.6707 ± 0.0018
45 | PPATPPRPLLPP | 0.672 ± 0.091
46 | HGRSGGGKGAER | 0.674 ± 0.038
47 | MNVPRQLISRFV | 0.683 ± 0.064
48 | LTSLIPPLPFLF | 0.669 ± 0.032
49 | GKSLLPATYDYY | 0.677 ± 0.04
50 | GEIGVRGYQAEE | 0.739 ± 0.029
51 | GGGLLMVAASRC | 0.634 ± 0.014
52 | IKKKKKKIKRNN | 0.654 ± 0.0099

Row | Sequence | protein stability index
53 | QTLNTKEKREKE | 0.727 ± 0.025
54 | RSGVSCPRVDDR | 0.643 ± 0.05
55 | PLRISQLDVVRS | 0.655 ± 0.045
56 | KPYKTYKIIKRE | 0.6578 ± 0.0028
57 | KKKKQNKKKIKK | 0.68 ± 0.086
58 | RRVRRRRTGGAW | 0.669 ± 0.005
59 | PLPSPSYLKSPC | 0.705 ± 0.013
60 | DEANFHGCYYGV | 0.647 ± 0.041
61 | RKLYMCMRTKGD | 0.673 ± 0.046
62 | GVRGGGAVGGLR | 0.65 ± 0.056
63 | FPHLAPTTHLLP | 0.673 ± 0.1
64 | ATSSNFGVWVHV | 0.69 ± 0.048
65 | KLKEDRRIGRNR | 0.668 ± 0.033
66 | GAPSHVTPLPQI | 0.686 ± 0.047
67 | HSSSASPPISSF | 0.657 ± 0.041
68 | GRKPGGGRRAPE | 0.666 ± 0.028
69 | GDNRGLTRVGIE | 0.718 ± 0.053
70 | SLVPCFLSFLYP | 0.5752 ± 0.0017
71 | KKLELLNRDRKV | 0.641 ± 0.042
72 | SENNLKHEKVIE | 0.735 ± 0.22
73 | VGKFGGAGGICQ | 0.685 ± 0.013
74 | ELGTDGSQKRAA | 0.7045 ± 0.0053
75 | PSPPPLLAPSPL | 0.683 ± 0.096
76 | RLLPPSLAQRNN | 0.5909 ± 0.0011
77 | RPPNPPPALPPL | 0.701 ± 0.056
78 | PSPLSLIPSSRP | 0.663 ± 0.095

Row | Sequence | protein stability index
79 | VCWVRGGGVLDG | 0.711 ± 0.053
80 | FLTSFVDLCGFY | 0.682 ± 0.0082
81 | LFYHLFWLFCSC | 0.634 ± 0.046
82 | RRMHLNMKEREL | 0.896 ± 0.054
83 | VIQMVIYEKDQR | 0.681 ± 0.04
84 | MDIVIGSQTEAN | 0.7365 ± 0.0036
85 | VVALTSVRSRDV | 0.6759 ± 0.0013
86 | PPAALPPSTLFS | 0.673 ± 0.04
87 | KTKEETNENRNL | 0.719 ± 0.027
88 | VGVGWAALRWYG | 0.6761 ± 0.0047
89 | VGLGMREWLGVE | 0.758 ± 0.026
90 | LRANSCCPLFGS | 0.739 ± 0.0036
91 | WWGGGVRGGMGG | 0.7578 ± 0.002
92 | NMKPPTNKGSNK | 0.675 ± 0.054
93 | GAGLPSGLRIGL | 0.647 ± 0.025
94 | FRGGLLSLSAWV | 0.699 ± 0.02
95 | SGIIVSPAVDMY | 0.667 ± 0.0067
96 | FFKNAILFVSCE | 0.548 ± 0.049
97 | KKGRAEKKKRRK | 0.65 ± 0.051
98 | LCGGLSLPFAHV | 0.691 ± 0.097
99 | FLSHRMNMSGLA | 0.658 ± 0.016
100 | AGADCSHCVVDV | 0.696 ± 0.0096
101 | YCLLGHIYKPLS | 0.679 ± 0.011
102 | LVFGRGCGWLSG | 0.664 ± 0.0071
103 | VRGSLFGICSAL | 0.705 ± 0.06
104 | LSTCVAESIEST | 0.68 ± 0.01

Row | Sequence | protein stability index
105 | SEARCVGSVWGG | 0.757 ± 0.098
106 | WWAERCLGGGRG | 0.744 ± 0.018
107 | TSLPPNLMRTAA | 0.634 ± 0.04
108 | LREKFFWTRIRR | 0.724 ± 0.05
109 | FLVKFYKYPSTR | 0.707 ± 0.12
110 | SVIGLNLVGMGW | 0.641 ± 0.046
111 | DKPRKVLPNENS | 0.6871 ± 0.0017
112 | GAWFTSSPVFGS | 0.731 ± 0.034
113 | SCEIDKMYLPLR | 0.701 ± 0.031
114 | PPLLPPPPPPAP | 0.666 ± 0.032
115 | LTPFFSRPSVLL | 0.72 ± 0.019
116 | MIGWQADSINKI | 0.783 ± 0.022
117 | PSALPLFWSELF | 0.661 ± 0.022
118 | QNNTRQQRKTPR | 0.683 ± 0.022
119 | WGRRGGVARGRA | 0.787 ± 0.1
120 | GRLGSSRIVGKS | 0.692 ± 0.017
121 | PEESSSEGSVKR | 0.67927 ± 0.00039
122 | CGTPWHSITCSA | 0.55 ± 0.012
123 | IKKKTKQKQHEK | 0.786 ± 0.3
124 | SRGQSSNEVSPL | 0.637 ± 0.017
125 | EYTIKTENKYKI | 0.747 ± 0.13
126 | LVCLFRGCGLRD | 0.714 ± 0.0084
127 | SAGLLFFSFPPL | 0.7873 ± 0.0067
128 | PAPLSIPSTLTT | 0.609 ± 0.053
129 | CPGNRQEMLKSR | 0.676 ± 0.0083
130 | RGWGVLCGGGWG | 0.556 ± 0.053

Row | Sequence | protein stability index
131 | CTGSRPPPDCAV | 0.646 ± 0.019
132 | PPPPTTATRQQT | 0.691 ± 0.016
133 | GGAVAVRGGSAA | 0.636 ± 0.035
134 | CHSIEGSEPREA | 0.694 ± 0.085
135 | HYWTTENDWPHG | 0.705 ± 0.025
136 | NALLHPRSHLAF | 0.686 ± 0.033
137 | SVVVVAKAKAGR | 0.635 ± 0.047
138 | LLANYQRPSPLN | 0.705 ± 0.063
139 | KIANNEIEYARD | 0.598 ± 0.037
140 | GRYRNDVAVLNF | 0.683 ± 0.087
141 | SIKKKQKIKLTK | 0.689 ± 0.02
142 | RFTNHPTRQTTG | 0.676 ± 0.088
143 | ETKRRQEQNIVR | 0.721 ± 0.082
144 | VHRMWINARDCV | 0.676 ± 0.05
145 | TRIEPTQGVDSP | 0.664 ± 0.01
146 | WGVGGVLEVLLG | 0.522 ± 0.022
147 | PLVPISPLPYLP | 0.737 ± 0.012
148 | FTTAGSGWESVW | 0.636 ± 0.041
149 | PPPPAPPPAPPP | 0.558 ± 0.019
150 | SPTPRLGGPPPI | 0.723 ± 0.015
151 | ARLPVPPLLCPF | 0.71 ± 0.061
152 | ESLMYGYWGFAR | 0.727 ± 0.045
153 | TCRGRLCVCLFC | 0.505 ± 0.015
154 | LILFLTTSSPLV | 0.608 ± 0.017
155 | QTYNKRKGAIRA | 0.616 ± 0.016
156 | RMINHGNKAKFS | 0.662 ± 0.016

Row | Sequence | protein stability index
157 | RTWDNTRDLDEL | 0.656 ± 0.019
158 | YCGGWWGGWEIG | 0.719 ± 0.0036
159 | VYVLHNVMCSSD | 0.632 ± 0.051
160 | SPVTDRRKRRNN | 0.666 ± 0.012
161 | PLPLPSPPPASP | 0.732 ± 0.025
162 | VRFPVEPYEAMF | 0.71 ± 0.0097
163 | LLPLLPAPRPPF | 0.691 ± 0.0063
164 | CSPLIISDATSR | 0.713 ± 0.082
165 | DGELFPDEPFYL | 0.801 ± 0.049
166 | QYFRKRVLKELP | 0.671 ± 0.074
167 | DCAVNYVGRRRR | 0.702 ± 0.057
168 | VVALVLVGRHGG | 0.597 ± 0.041
169 | PTPTAPEPIHPS | 0.61 ± 0.0025
170 | HNVLVYCGCALG | 0.6032 ± 0.0036
171 | VFMPVGVGGGSC | 0.678 ± 0.05
172 | PPPWSFPCPSAS | 0.778 ± 0.084
173 | MGGGGGLCGMWA | 0.723 ± 0.021
174 | YSLTFSIHSSCP | 0.697 ± 0.033
175 | IEKVKIMNKERN | 0.692 ± 0.017
176 | GGGRGGAAEGAV | 0.781 ± 0.07
177 | GLVVGGLRPKRV | 0.68 ± 0.004
178 | PPPLSPFTTPPS | 0.7493 ± 0.00077
179 | PEIKKNRTVSIV | 0.664 ± 0.011
180 | FFLGAPVRQFFF | 0.582 ± 0.011
181 | PPLAPASPSPLP | 0.698 ± 0.023
182 | CSAALTTLLDFA | 0.715 ± 0.018

Row | Sequence | protein stability index
183 | PPRPSPPPLPPS | 0.683 ± 0.051
184 | VLMDVVGLGSSS | 0.683 ± 0.019
185 | DSGVGLARSARG | 0.678 ± 0.018
186 | LPARFLIDFTRV | 0.688 ± 0.029
187 | RGEERGGTRPAG | 0.6788 ± 0.0037
188 | WSVGRVGGCGAR | 0.704 ± 0.052
189 | GGCEWWAWGRGG | 0.727 ± 0.032
190 | PCSRVICASEFT | 0.701 ± 0.045
191 | RCGVAGVVCGSG | 0.615 ± 0.039
192 | VIFIRCFNFQDG | 0.614 ± 0.052
193 | KSYKRICTKKSR | 0.782 ± 0.096
194 | DRVGGDWMERGG | 0.719 ± 0.036
195 | TAGPHPLSLPPP | 0.709 ± 0.033
196 | LVLDCPISEVLL | 0.6403 ± 0.0055
197 | SNRLIKKKKKRI | 0.715 ± 0.036
198 | STIIYFLTYSDK | 0.634 ± 0.063
199 | EIKKKKSQTKKT | 0.67 ± 0.085
200 | LAGPYGRVTVFF | 0.67 ± 0.029
201 | RRDIPLSPVAFS | 0.702 ± 0.031
202 | MVSSIESHIVLY | 0.66 ± 0.0078
